The target of assay [1] is T1, GST-Vps10 (Vps10 subdomain of T. gondii sortilin) (Toxoplasma gondii, UniProt A0A7J6KCY2).
T1 construct: gene TGRH88_014830; Vps10 subdomain (160-667 aa) of 1033-aa sortilin; GST-tagged from pGEX-4T-1, E. coli BL21 (DE3); tag kept; biotinylated with NHS-PEG12-biotin
Put plainly: bio-layer interferometry, biotinylated GST-Vps10 on SSA sensor. As to conditions: AF38469 at 100-500 nM diluted in DMSO; PBS, DMSO as negative control. The class given is binding.

For a further assay, the target named is T2, His-TgSAG2 (Toxoplasma gondii).
T2 chain: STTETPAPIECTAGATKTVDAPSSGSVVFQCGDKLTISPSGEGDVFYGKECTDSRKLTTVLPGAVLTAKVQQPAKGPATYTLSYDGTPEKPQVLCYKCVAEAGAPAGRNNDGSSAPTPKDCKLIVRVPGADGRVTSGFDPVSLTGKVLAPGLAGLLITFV
Put plainly: BLI.

The target in the next assay is T3, His-TgMIC3 (Toxoplasma gondii, UniProt A0A7J6KDB0 27-383).
T3 chain: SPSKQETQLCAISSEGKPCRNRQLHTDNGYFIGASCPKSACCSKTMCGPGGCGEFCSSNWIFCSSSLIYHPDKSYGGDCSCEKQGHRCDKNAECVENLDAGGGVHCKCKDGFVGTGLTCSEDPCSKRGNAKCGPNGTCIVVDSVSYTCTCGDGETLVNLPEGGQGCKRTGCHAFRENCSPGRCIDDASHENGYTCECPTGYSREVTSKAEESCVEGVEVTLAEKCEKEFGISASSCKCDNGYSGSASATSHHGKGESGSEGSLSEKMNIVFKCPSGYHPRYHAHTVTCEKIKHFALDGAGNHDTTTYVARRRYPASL
Put plainly: BLI.

The next assay addresses T4, His-TgROP9 (Toxoplasma gondii, UniProt S8F3X8 1-353).
T4 chain: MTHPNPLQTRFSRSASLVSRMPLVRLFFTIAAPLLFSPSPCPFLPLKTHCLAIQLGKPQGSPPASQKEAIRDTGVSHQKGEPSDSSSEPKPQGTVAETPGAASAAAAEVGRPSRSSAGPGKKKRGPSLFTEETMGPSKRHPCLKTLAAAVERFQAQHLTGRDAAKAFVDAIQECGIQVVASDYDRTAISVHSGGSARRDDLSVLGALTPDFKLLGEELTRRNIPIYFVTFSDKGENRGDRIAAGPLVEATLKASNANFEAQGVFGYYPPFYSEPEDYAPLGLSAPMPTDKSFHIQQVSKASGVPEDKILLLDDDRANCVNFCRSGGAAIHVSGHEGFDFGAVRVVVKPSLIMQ
Put plainly: BLI.

Turning to `Cc1cccc(NC(=O)c2ccc(C(F)(F)F)cc2C(=O)O)n1` [AF38469], in assay [1], the “bio-layer interferometry, biotinylated GST-Vps10 on SSA sensor” value is “only the Vps10 subdomain could bind to AF38469 with high affinity”.

B1: GST-tagged recombinant sortilin protein (natural protein)
chain: MYTSRTPHGGLRRWPLSRSSVSAVASRVLSRSVAFHRRLASFLLSRKKTPLCALSSRPSGLQASSGVQTVTMAHSFARGRPPAAGRTLAVFLAFLAVLSPSLLPEFFSEDAQKRESSVLVANAASYANKKVSVSEVSFDSHIEDIQWCGTDHRTILLKTRRGRLYRSQDGGKSWTEITDLLKSSEAATGTVAVDSIIVSPVDKRVVLIVGSKRNHFISEDSAATFRRLKYKNTIHNFHFHPTRPKYAILSTWTDACYSGSGTASRAQSQQDCNHQLFYTRDLGRSFKLVADYVVQFSWGDKKLGNTDHIFFTQHRGRSGDQPRYGGWSKNVDLMYTPDFGATITRLVYRGNKFLLSNGYFFVAKVKDAAKQTVSLLVSTDGGKSFQMAKLPVEIEERSYTVLDTSEDAIMLHVNHGHDNKGDTGNVYISDAKGVRYSLSLPNNIRTSTGECEFDKVLSLEGVYLANFKDSVDSSASVDGGQQGDLEKLEEEIEEEAEGVQVDLEKKHKSVATRSRQEEVIRTVISFDKGGVWSYLKAPKVDSRGQKIDCPPDRCWLHLNGITRFSDFAPFYSVENAVGIIMGTGNVGSYLRPEKDEANTYLSRDGGVSWIEAHKGAFIYEMGDHGGLLVMADDTKKTNQVVFSWNEGQSWYDFELGAAPLFVDNIVIEPNASSVEFLLYGKREQDSAGVLFHLDFNALNQQQCKGIWAADSVSSDYETWSPSDGRAGGERCILGKHITYTRRKQTSECFNGRDFDRPKVSKVCPCTMEDYECEFGFTRAIGSTQCVATDAAAAAAATATGLAQFADESDAAAAAACTSSSFFYTSAYRKVPGDVCEGGWMPEKVAVPCPAHSPVSRGGKTVLLLLLFIVVVMVVINYLAKTGRLKKFFRNAGFDSFANVSYGLVGASAGGPGGWLDQEAGESRRGEELGERSKYEPELGFIEAEQDENEEDAPTLMNYGNAAGGQRTSGMSSRSPKPTEDFELDDSRPLFPSHVSSRETQGSSGLHPRSTSTENEPIPRLAPPRFDEDNVELL
As for B1, the Kd came to 915 nM with His-TgSAG2, 0.847 nM with His-TgMIC3 and 0.963 nM with His-TgROP9.

These data come from article PMC10910794, “Toxoplasma sortilin interacts with secretory proteins and it is critical for parasite proliferation” (Parasites & Vectors, 2024).
